Reference: patent US20220313780A1, “METHODS AND COMPOSITIONS FOR TREATING INFLAMMATORY CONDITIONS” (THE SCRIPPS RESEARCH INSTITUTE, priority 2019, published 2022)

Biological target: T1, PAR1 (Homo sapiens, UniProt P25116)
T1 construct: endogenous in cells; host or cells: THP1-null (wildtype) cells, PMA-differentiated
T1 sequence (P25116 22-425): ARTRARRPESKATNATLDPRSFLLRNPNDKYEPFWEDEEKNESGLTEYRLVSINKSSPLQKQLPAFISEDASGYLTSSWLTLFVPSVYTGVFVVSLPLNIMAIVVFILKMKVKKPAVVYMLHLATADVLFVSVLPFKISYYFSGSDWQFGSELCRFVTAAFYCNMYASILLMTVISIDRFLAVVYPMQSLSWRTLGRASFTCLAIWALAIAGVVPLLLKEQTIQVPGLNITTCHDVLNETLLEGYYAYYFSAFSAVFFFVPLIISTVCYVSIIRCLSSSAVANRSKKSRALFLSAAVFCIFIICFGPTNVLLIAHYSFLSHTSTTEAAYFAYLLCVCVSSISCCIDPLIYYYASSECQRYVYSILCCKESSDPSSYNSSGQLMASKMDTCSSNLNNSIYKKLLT
Assay: Caspase 1 activity assay in THP1 cells after inhibition of PAR1 (WEDE15, ATAP2, SCH79797)
Type: cell-based
Conditions: TR47 50 μM or P3R 50 μM; for effect of PAR1 blocking antibody ATAP2 on reduction of caspase 1 activity: ATAP2 10 μg/mL for 15 minutes before APC 4 μg/mL; for effect of PAR1 small molecule antagonist SCH79797 on reduction of caspase 1 activity: SCH79797 20 μM for 20 minutes before APC 4 μg/mL; for effect of PAR1 blocking antibody WEDE15 on reduction of caspase 1 activity: WEDE15 20 μg/mL for 15 minutes before APC 4 μg/mL
Description: THP1 or (A) NLRP3 deficient cells (THP1-defNLRP3) cells were plated at a final concentration of 1×10^6/mL in 96 well plates and incubated with PMA (0.5 μM) for 3 hours 37° C. in supplemented RPMI. Media was subsequently changed every 24 hours for 3 days. In brief, selected wells were treated with APC (4 μg/mL), TR47 (50 μM) or P3R (50 μM) for 1 hour, washed with DPBS, and incubated with LPS (1 μg/mL) for 3 hours at 37° C. in serum-free RPMI. After a DPBS wash, cells were incubated with ATP (5 mM) in the presence or absence of 10 μM YVAD (caspase 1 inhibitor) or 2.5 μM ZVAD (pan-caspase inhibitor) for 45 minutes at 37° C. In (B), after PMA differentiation, select wells were treated with APC (4 μg/mL), TR47 (50 μM) or P3R (50 μM) for 1 hour, washed with DPBS, and incubated with LPS (1 μg/mL) for 3 hours at 37° C. in serum-free RPMI. Cells were washed with DPBS before being treated with the NLRP3 inhibitor MCC950 (10 μM) or DMSO for 30 minutes. Again, cells were washed with DPBS and incubated with ATP (5 mM) in the presence or absence of 10 μM YVAD (caspase 1 inhibitor) or 2.5 μM ZVAD (pan-caspase inhibitor) for 45 minutes prior to performing the caspase 1 activity following manufacturer's directions measuring luminescence. In (C-F) prior to APC, TR47 or P3R treatment, cells were incubated with antibodies or inhibitors. In (C) cell were incubated with the blocking EPCR antibody, RCR-252 (50 μg/mL); (D) mouse monoclonal antibody to PAR3, clone 19b (clonel9b; 25 μg/mL) for 30 minutes. In (E) cells were treated with either mouse monoclonal antibodies to PAR1, WEDE15 (20 μg/mL) or ATAP2 (10 μg/mL) for 15 minutes. In (F) cells were treated with the small molecule PAR1 inhibitor, SCH79797 (SCH; 20 μM) for 20 minutes. Following antibody or small molecule treatments (C-F) selected wells were treated with APC (4 μg/mL), TR47 (50 μM) or P3R (50 μM) for 1 hour, washed with DPBS, and incubated with LPS (1 μg/mL) for 3 hours at 37° C. in serum-free RPMI. After a DPBS wash, cells were incubated with ATP (5 mM) in the presence or absence of 10 μM YVAD (caspase 1 inhibitor) or 2.5 μM ZVAD (pan-caspase inhibitor) for 45 minutes at 37° C., prior to performing the caspase 1 activity assay following manufacturer's directions measuring luminescence (relative luminescent units, RLU). (A-F) Data points represent mean±SD of at least 3 independent experiments. *P<0.05 (vs. LPS+ATP); #P<0.05 (vs. LPS+ATP & APC, TR47 or P3R); ##P<0.005 (vs. LPS+ATP & APC, TR47 or P3R); n.s. not significant.
Caspase 1 assay. THP1-null (wildtype cells) or NLRP3-deficient THP1-(defNLRP3) cells were plated at a final concentration of 1×10^6/mL in 96 well plates and incubated with PMA (0.5 μM) for 3 hours 37° C. in supplemented RPMI. Media was subsequently changed every 24 hours for 3 days. Various subsets of wells were selected and cells were treated for 60 minutes at 37° C. in serum-free RPMI with various concentrations of APC, TR47 or P3R. Following DPBS wash, cells were incubated with LPS (lipopolysaccharide) (1 μg/mL) for 3 hours at 37° C. in serum-free RPMI to prime the inflammasome. After a DPBS wash, to fully activate caspase 1 activity, cells were incubated with ATP (5 mM), in the presence or absence of 10 μM YVAD (caspase 1 inhibitor), and 2.5 μM ZVAD (pan-caspase inhibitor) for 45 minutes at 37° C., prior to performing the caspase 1 activity assay following the manufacturer's (Promega) directions; caspase 1 activity was monitored as luminescence changes due to substrate hydrolysis and reported as relative luminescent units (RLU).^15 In select experiments, caspase 1 activity of experimental conditions were normalized to YVAD (caspase 1 inhibitor) conditions and expressed as normalized caspase 1 activity.

Sequence | effect of PAR1 blocking antibody ATAP2 on reduction of caspase 1 activity | effect of PAR1 small molecule antagonist SCH79797 on reduction of caspase 1 activity | effect of PAR1 blocking antibody WEDE15 on reduction of caspase 1 activity
GAPPNSFEEFPFSALEGWTGATIT [P3R, PAR3-derived 24-mer peptide] | None of the PAR1-targeted inhibitors statistically significantly reduced the anti-inflammatory activity | None of the PAR1-targeted inhibitors statistically significantly reduced the anti-inflammatory activity | None of the PAR1-targeted inhibitors statistically significantly reduced the anti-inflammatory activity
NPNDKYEPFWEDEEKNESGL [TR47, PAR1-derived 20 amino acid peptide] | not by ATAP2 | inhibited by SCH79797 and WEDE15 | inhibited by SCH79797 and WEDE15
